According to article PMC9993842 (2023):

Target: LRP2 (megalin) (Mus musculus, UniProt A2ARV4)
Experiment: SPR

- Kd: 5.8 nM
B1: RAP (receptor-associated protein) (protein)
chain: YSREKNQPKPSPKRESGEEFRMEKLNQLWEKAQRLHLPPVRLAELHADLKIQERDELAWKKLKLDGLDEDGEKEARLIRNLNVILAKYGLDGKKDARQVTSNSLSGTQEDGLDDPRLEKLWHKAKTSGKFSGEELDKLWREFLHHKEKVHEYNVLLETLSRTEEIHENVISPSDLSDIKGSVLHSRHTELKEKLRSINQGLDRLRRVSHQGYSTEAEFEEPRVIDLWDLAQSANLTDKELEAFREELKHFEAKIEKHNHYQKQLEIAHEKLRHAESVGDGERVSRSREKHALLEGRTKELGYTVKKHLQDLSGRISRARHNEL
